Assay results: IntAct's records for PubMed 35512704

B1: Mothers against decapentaplegic homolog 4 (Homo sapiens), Q13485 (parent)
chain: MDNMSITNTPTSNDACLSIVHSLMCHRQGGESETFAKRAIESLVKKLKEKKDELDSLITAITTNGAHPSKCVTIQRTLDGRLQVAGRKGFPHVIYARLWRWPDLHKNELKHVKYCQYAFDLKCDSVCVNPYHYERVVSPGIDLSGLTLQSNAPSSMMVKDEYVHDFEGQPSLSTEGHSIQTIQHPPSNRASTETYSTPALLAPSESNATSTANFPNIPVASTSQPASILGGSHSEGLLQIASGPQPGQQQNGFTGQPATYHHNSTTTWTGSRTAPYTPNLPHHQNGHLQHHPPMPPHPGHYWPVHNELAFQPPISNHPAPEYWCSIAYFEMDVQVGETFKVPSSCPIVTVDGYVDPSGGDRFCLGQLSNVHRTEAIERARLHIGKGVQLECKGEGDVWVRCLSDHAVFVQSYYLDREAGRAPGDAVHKIYPSAYIKVFDLRQCHRQMQQQAATAQAAAAAQAAAVAGNIPGPGSVGGIAPAISLSAAAGIGVDDLRRLCILRMSFVKGWGPDYPRQSIKETPCWIEIHLHRALQLLDEVLHTMPIADPQPLD
partner: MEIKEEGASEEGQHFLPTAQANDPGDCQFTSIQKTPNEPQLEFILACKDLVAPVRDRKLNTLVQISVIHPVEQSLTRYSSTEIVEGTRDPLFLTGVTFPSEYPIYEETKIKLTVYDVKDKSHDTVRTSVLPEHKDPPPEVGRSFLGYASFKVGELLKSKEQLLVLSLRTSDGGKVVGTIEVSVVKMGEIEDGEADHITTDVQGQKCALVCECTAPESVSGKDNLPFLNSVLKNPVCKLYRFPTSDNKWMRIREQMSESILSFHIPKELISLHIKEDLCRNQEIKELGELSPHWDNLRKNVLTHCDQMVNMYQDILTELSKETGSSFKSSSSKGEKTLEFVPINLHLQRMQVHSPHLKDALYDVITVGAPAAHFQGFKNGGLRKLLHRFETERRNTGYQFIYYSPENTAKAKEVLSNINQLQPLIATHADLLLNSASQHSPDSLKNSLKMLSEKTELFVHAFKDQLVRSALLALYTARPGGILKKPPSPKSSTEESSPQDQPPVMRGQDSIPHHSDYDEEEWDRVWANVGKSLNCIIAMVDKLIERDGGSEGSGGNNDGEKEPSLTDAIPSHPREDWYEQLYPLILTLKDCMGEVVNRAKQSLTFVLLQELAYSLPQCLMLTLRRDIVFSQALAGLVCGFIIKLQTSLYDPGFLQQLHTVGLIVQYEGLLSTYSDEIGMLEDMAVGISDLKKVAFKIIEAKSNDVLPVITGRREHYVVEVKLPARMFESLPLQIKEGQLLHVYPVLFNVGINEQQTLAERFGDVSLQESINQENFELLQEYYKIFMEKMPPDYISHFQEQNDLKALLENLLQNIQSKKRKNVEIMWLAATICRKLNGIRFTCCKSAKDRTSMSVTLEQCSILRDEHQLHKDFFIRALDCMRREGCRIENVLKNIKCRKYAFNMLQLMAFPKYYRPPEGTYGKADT
B2: Mothers against decapentaplegic homolog 4 (Homo sapiens), Q13485 (parent)
chain: B1 chain
partner: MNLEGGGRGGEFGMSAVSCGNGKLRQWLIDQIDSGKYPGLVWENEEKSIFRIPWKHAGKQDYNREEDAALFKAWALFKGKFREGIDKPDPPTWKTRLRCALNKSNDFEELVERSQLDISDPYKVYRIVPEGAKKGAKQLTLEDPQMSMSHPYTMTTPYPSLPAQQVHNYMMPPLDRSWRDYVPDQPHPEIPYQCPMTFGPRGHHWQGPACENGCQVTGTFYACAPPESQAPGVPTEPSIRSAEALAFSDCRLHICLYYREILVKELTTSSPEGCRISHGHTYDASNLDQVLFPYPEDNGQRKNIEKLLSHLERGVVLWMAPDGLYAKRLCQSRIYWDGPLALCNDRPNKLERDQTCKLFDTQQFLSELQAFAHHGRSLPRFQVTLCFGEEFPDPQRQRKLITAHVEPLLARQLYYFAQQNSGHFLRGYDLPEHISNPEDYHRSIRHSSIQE
B3: Mothers against decapentaplegic homolog 4 (Homo sapiens), Q13485 (parent)
chain: B1 chain
partner: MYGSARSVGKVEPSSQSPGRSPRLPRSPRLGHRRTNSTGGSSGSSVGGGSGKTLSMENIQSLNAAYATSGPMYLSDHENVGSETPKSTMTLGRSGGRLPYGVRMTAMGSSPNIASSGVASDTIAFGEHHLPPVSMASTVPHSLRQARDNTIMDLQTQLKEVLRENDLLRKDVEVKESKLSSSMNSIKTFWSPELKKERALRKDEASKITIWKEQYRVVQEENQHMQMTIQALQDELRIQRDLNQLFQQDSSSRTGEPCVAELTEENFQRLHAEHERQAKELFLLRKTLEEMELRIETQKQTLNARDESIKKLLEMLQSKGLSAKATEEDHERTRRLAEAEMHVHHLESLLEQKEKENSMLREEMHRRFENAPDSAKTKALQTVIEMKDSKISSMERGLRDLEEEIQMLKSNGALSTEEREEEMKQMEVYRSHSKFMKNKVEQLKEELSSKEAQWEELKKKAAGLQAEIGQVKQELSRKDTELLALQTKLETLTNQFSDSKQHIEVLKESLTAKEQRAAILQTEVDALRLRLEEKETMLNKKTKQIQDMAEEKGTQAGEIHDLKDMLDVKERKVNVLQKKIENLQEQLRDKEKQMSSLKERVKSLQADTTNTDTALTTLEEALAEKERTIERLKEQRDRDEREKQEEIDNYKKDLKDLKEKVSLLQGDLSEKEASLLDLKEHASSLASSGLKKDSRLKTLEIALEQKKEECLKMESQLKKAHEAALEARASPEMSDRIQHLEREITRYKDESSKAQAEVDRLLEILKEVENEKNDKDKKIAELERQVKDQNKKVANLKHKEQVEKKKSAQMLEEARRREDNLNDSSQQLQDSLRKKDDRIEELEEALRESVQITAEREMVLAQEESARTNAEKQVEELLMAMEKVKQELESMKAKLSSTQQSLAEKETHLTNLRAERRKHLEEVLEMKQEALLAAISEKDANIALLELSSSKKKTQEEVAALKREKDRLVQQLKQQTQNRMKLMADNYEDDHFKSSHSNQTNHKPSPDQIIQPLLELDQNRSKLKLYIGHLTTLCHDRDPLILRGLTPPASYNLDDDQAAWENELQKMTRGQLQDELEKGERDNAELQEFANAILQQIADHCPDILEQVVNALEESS
B4: Mothers against decapentaplegic homolog 4 (Homo sapiens), Q13485 (parent)
chain: B1 chain
partner: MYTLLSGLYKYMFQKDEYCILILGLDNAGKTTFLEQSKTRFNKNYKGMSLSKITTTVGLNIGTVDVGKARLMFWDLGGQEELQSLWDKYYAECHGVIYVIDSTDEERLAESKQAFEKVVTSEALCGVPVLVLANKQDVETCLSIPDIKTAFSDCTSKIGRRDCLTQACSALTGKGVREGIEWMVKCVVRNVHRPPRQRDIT
B5: Mothers against decapentaplegic homolog 4 (Homo sapiens), Q13485 (parent)
chain: B1 chain
partner: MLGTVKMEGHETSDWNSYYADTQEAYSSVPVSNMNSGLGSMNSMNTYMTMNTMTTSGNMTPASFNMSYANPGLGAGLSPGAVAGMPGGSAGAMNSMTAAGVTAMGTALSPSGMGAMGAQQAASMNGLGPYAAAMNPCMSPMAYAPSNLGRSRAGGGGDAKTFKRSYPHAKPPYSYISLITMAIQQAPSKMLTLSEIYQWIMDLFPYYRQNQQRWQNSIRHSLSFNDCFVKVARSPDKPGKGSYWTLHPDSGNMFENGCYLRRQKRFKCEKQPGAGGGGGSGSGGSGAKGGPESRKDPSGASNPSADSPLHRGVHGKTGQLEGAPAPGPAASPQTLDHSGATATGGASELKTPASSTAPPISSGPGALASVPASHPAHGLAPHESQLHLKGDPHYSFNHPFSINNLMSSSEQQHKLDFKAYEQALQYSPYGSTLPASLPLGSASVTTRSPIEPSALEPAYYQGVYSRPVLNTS
B6: Mothers against decapentaplegic homolog 4 (Homo sapiens), Q13485 (parent)
chain: B1 chain
partner: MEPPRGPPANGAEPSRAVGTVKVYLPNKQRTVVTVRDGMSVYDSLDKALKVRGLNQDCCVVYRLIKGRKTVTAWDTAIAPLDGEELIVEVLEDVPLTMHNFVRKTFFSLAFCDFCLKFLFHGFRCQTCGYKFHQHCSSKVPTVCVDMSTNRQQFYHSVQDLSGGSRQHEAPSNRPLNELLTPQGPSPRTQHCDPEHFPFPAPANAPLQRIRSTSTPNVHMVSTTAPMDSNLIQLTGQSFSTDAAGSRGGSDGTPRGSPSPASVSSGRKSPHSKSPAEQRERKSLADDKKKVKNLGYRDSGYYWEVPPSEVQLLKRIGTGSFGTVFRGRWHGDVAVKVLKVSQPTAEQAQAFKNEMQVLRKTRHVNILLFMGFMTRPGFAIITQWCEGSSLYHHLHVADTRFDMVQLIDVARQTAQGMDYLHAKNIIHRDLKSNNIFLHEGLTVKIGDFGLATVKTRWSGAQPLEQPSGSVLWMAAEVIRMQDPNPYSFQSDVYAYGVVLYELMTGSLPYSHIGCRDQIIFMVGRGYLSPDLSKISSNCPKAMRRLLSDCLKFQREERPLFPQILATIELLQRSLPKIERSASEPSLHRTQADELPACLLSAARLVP

Variants of: B1
Conditions: with inp4b_human INPP4B

| Variant | effect of a mutation on the interaction |
| --- | --- |
| D351H | with no effect |

Variants of: B1
Conditions: with inp4b_human INPP4B
Remark: another data set of the same source

| Variant | effect of a mutation on the interaction |
| --- | --- |
| R361H | with no effect |

Variants of: B1
Conditions: with inp4b_human INPP4B
Remark: another data set of the same source

| Variant | effect of a mutation on the interaction |
| --- | --- |
| R361C | with no effect |

Variants of: B2
Conditions: with irf4_human IRF4, Q15306

| Variant | effect of a mutation on the interaction |
| --- | --- |
| R361C | with no effect |

Variants of: B2
Conditions: with irf4_human IRF4, Q15306
Remark: another data set of the same source

| Variant | effect of a mutation on the interaction |
| --- | --- |
| R361H | with no effect |

Variants of: B2
Conditions: with irf4_human IRF4, Q15306
Remark: another data set of the same source

| Variant | effect of a mutation on the interaction |
| --- | --- |
| G386D | with no effect |

Variants of: B2
Conditions: with irf4_human IRF4, Q15306
Remark: another data set of the same source

| Variant | effect of a mutation on the interaction |
| --- | --- |
| D351H | with no effect |

Variants of: B3
Conditions: with rb6i2_human ERC1, Q8IUD2

| Variant | effect of a mutation on the interaction |
| --- | --- |
| R361C | with no effect |

Variants of: B3
Conditions: with rb6i2_human ERC1, Q8IUD2
Remark: another data set of the same source

| Variant | effect of a mutation on the interaction |
| --- | --- |
| R361H | with no effect |

Variants of: B3
Conditions: with rb6i2_human ERC1, Q8IUD2
Remark: another data set of the same source

| Variant | effect of a mutation on the interaction |
| --- | --- |
| D351H | with no effect |

Variants of: B3
Conditions: with rb6i2_human ERC1, Q8IUD2
Remark: another data set of the same source

| Variant | effect of a mutation on the interaction |
| --- | --- |
| G386D | with no effect |

Variants of: B4
Conditions: with arfrp_human ARFRP1, Q13795

| Variant | effect of a mutation on the interaction |
| --- | --- |
| G386D | with no effect |

Variants of: B4
Conditions: with arfrp_human ARFRP1, Q13795
Remark: another data set of the same source

| Variant | effect of a mutation on the interaction |
| --- | --- |
| D351H | with no effect |

Variants of: B4
Conditions: with arfrp_human ARFRP1, Q13795
Remark: another data set of the same source

| Variant | effect of a mutation on the interaction |
| --- | --- |
| R361C | with no effect |

Variants of: B4
Conditions: with arfrp_human ARFRP1, Q13795
Remark: another data set of the same source

| Variant | effect of a mutation on the interaction |
| --- | --- |
| R361H | with no effect |

Variants of: B5
Conditions: with foxa1_human FOXA1, P55317

| Variant | effect of a mutation on the interaction |
| --- | --- |
| D351H | with no effect |

Variants of: B5
Conditions: with foxa1_human FOXA1, P55317
Remark: another data set of the same source

| Variant | effect of a mutation on the interaction |
| --- | --- |
| R361H | with no effect |

Variants of: B5
Conditions: with foxa1_human FOXA1, P55317
Remark: another data set of the same source

| Variant | effect of a mutation on the interaction |
| --- | --- |
| R361C | with no effect |

Variants of: B5
Conditions: with foxa1_human FOXA1, P55317
Remark: another data set of the same source

| Variant | effect of a mutation on the interaction |
| --- | --- |
| G386D | with no effect |

Variants of: B6
Conditions: with araf_human ARAF

| Variant | effect of a mutation on the interaction |
| --- | --- |
| D351H | with no effect |

Variants of: B6
Conditions: with araf_human ARAF
Remark: another data set of the same source

| Variant | effect of a mutation on the interaction |
| --- | --- |
| R361H | with no effect |

Variants of: B6
Conditions: with araf_human ARAF
Remark: another data set of the same source

| Variant | effect of a mutation on the interaction |
| --- | --- |
| R361C | with no effect |

Variants of: B6
Conditions: with araf_human ARAF
Remark: another data set of the same source

| Variant | effect of a mutation on the interaction |
| --- | --- |
| G386D | with no effect |

Variants of: B6
Conditions: with araf_human ARAF
Remark: another data set of the same source

| Variant | effect of a mutation on the interaction |
| --- | --- |
| G386D | increasing interaction strength |
